Assay results: patent publication US20260275317A1, “CHIMERIC ENDOLYSINS WITH ACTIVITY AGAINST STREPTOCOCCI AND STAPHYLOCOCCI” (UNIVERSITEIT GENT, priority 2023, published 2026)

System: S. uberis, S. aureus, S. agalactiae and S. dysgalactiae
Assay: 2 h time killing assay in PBS and UHT-milk, relative in vitro scoring
Type: cell-based
Conditions: 0.25 μM
Experimental: Concerning the time killing assay, an overnight bacterial culture was diluted 1:10 for S. uberis, S. agalactiae-& dysgalactiae or 1:100 for S. aureus in PBS or UHT-pasteurized whole cow's milk. A volume of 10 μL thereof was combined with an equal amount of chimeric endolysin in PBS (or only PBS as negative control) in triplicate and incubated in a covered 96-well microtiter plate at 37° C. for 2 h. […] Finally, these fractions were serially diluted 1:10 in PBS. 5 μL of each fraction was spotted on TSA or BHI-agar and incubated overnight at 37° C. The following day, colony forming units (CFU) were counted and converted to CFU/mL to calculate logarithmic reductions in comparison with the negative control. The relative scores were calculated by dividing the observed logarithmic reduction for each endolysin by the maximal reduction observed for that specific condition and strain. Next, this value was divided by the number of conditions and strains tested (i.e., 8=4 bacterial strains×2 conditions (PBS/UHT-milk)). As such, the best performing candidate in each individual assay received a score of 0.125 (=(1/1)/8). […] Turbidity reduction assays were performed by combining 100 μL of overnight grown bacterial cells with an equal volume of purified enzyme at the desired concentration. Bacterial cells were washed with PBS and resuspended in a 1:1 ratio with enzyme to an OD600 of approximately 1.0. Next, the OD600 was measured using a Tecan infinite 200 PRO plate reader (Tecan, Switzerland) every 15 seconds at 37° C., shaking the 96-well plate between each measurement.
Stationary phase S. uberis 0140J or S. aureus N305 and one randomly chosen clinical isolate of S. uberis, S. aureus, S. agalactiae and S. dysgalactiae were challenged with a final concentration of 0.25 μM endolysin in a 2 h time killing assay (TKA) in both phosphate buffered saline (PBS) and ultra-high temperature pasteurized whole cow's milk (UHT-milk).

Molecule	ranking by cumulative relative in vitro score
NC3: chimeric endolysin SEQ ID NO: 15; CPP + PlySs2 CHAP + Ply1081 CW_7 + PlySs9 amidase_3 (protein) MGFGCNGPWNEDDLRCRNHCKSIKGYKGGYCAKGGFVCKCYGATTVNEALNNVRAQVGSGVSVGNGECYALASWYERMISPDATVGLGAGVGWVSGAIGDTISAKNIGSSYNWQANGWTVSTSGPFKAGQIVTLGATPGNPYGHVVIVEAVDGDRLTILEQNYGGKRYPVRNYYSAASYRQQVVHYITPPGTVAQSAPNLAGAGIDQLVQETLAGKYGNGEQRKAALGSQYQAVMAVINGKATAPKKTVDQLAQEVIQGKHGNGEDRKKSLGPDYDAVQKRVTEILKGSPSGNIPKTPSDAPKSEVVNSSTEPKTEETGANGKATDTKITKGSGKHLVICGHGQGRTGYDPGAVNAKLGITEAGKVRELSKLMSKYSGQQIDFITEQNVYDYRSITSIGKGYDSITELHFNAFNGSAKGTEVLIQSSLEADKEDMAILSLLSRYFQNRGIKKVDWLYNANQAASRGYTYRLVEIAFIDNEQDMAIFENKKEDIAKGLVSAITGVEVKTIVPSPPSSTVGSSGTPSKSIYLVGDSLRVLPHATHYQTGQKIANWVKGRTYKILQVKNVHQSNSKRAYLLDGIKSWVLEQDVEGTTKGHSKYHHHHHH	overall best performing candidates
NC8: chimeric endolysin SEQ ID NO: 20; CPP + PlySs2 CHAP + Ply1081 CW_7 + PlySs9 amidase_3 (protein) MRQIKWFQNRRMKWKKGATTVNEALNNVRAQVGSGVSVGNGECYALASWYERMISPDATVGLGAGVGWVSGAIGDTISAKNIGSSYNWQANGWTVSTSGPFKAGQIVTLGATPGNPYGHVVIVEAVDGDRLTILEQNYGGKRYPVRNYYSAASYRQQVVHYITPPGTVAQSAPNLAGAGIDQLVQETLAGKYGNGEQRKAALGSQYQAVMAVINGKATAPKKTVDQLAQEVIQGKHGNGEDRKKSLGPDYDAVQKRVTEILKGSPSGNIPKTPSDAPKSEVVNSSTEPKTEETGANGKATDTKITKGSGKHLVICGHGQGRTGYDPGAVNAKLGITEAGKVRELSKLMSKYSGQQIDFITEQNVYDYRSITSIGKGYDSITELHFNAFNGSAKGTEVLIQSSLEADKEDMAILSLLSRYFQNRGIKKVDWLYNANQAASRGYTYRLVEIAFIDNEQDMAIFENKKEDIAKGLVSAITGVEVKTIVPSPPSSTVGSSGTPSKSIYLVGDSLRVLPHATHYQTGQKIANWVKGRTYKILQVKNVHQSNSKRAYLLDGIKSWVLEQDVEGTTKGHSKYHHHHHH	overall best performing candidates
